Results from the DeepSol protein solubility set.

Test: soluble on expression in E. coli; label from the status in PepcDB or PDB records

Sequence | soluble on expression in E. coli
MAHHHHHHMSTFARRRIIQDLNKINKEKNKSFEASPFADNIMYCHAIIRGPDDTIWECGIFHLIIHFSEEYPVSPPKLRFLSKIYHPNIYSDGNICLDILQNQWSPIYDITSILTSIQSLLNDPNTSSPANPEAARIFINNRNLYNKRVLMCVEDSWEIPKFNINNYS | not soluble
MSSTQTDYRLSDDLLGPVLAILDAYIDPYLAKGLVSAGCVNKLAIEGKRLQLGLVYPYPCMTQYRDTVMALTNKLAVLDAIDEVECEIDFQPKVYSAIASIAPIANVKQVIAVASGKGGVGKSTTAVNLALALAAEGAQVGILDADIYGPSVPLMLGIPNFRPVSPDGKHMTAASAYGIAAQSIGFMLSGDEAAVWRGPMAAGALAQLLNETQWPELDYLVVDMPPGTGDIQLTLSQKVPVSGAVIVTTPQDIALADAKKGITMFQKVNIPVLGIVENMSFHLCPECGHKEHPFGTHGGSKMAERYQVPLLGALPLHINIREAMDVGAPTVVAEPDSEVAALYREIARKVGAELALKQSQKTVSISVSDDELEHHHHHH | soluble
FESGLDLSDAEPDAGEATAYASKDLEEQLRSVSSVDELMTVLYPEYWKMYKCQLRKGGWQHNREQANLNSRTEETIKFAAAHYNTEILKSIDNEWRKTQCMPREVCIDVGKEFGVATNTFFKPPCVSVYRCGGCCNSEGLQCMNTSTSYLSKTLFEITVPLSQGPKPVTISFANHTSCRCMSKLDVYRQVHSIIRRSLPATLPQCQAANKTCPTNYMWNNHICRCLAQEDFMFSSDAGDDSTDGFHDICGPNKELDEETCQCVCRAGLRPASCGPHKELDRNSCQCVCKNKLFPSQCGANREFDENTCQCVCKRTCPRNQPLNPGKCACECTESPQKCLLKGKKFHHQTCSCYRRPCTNRQKACEPGFSYSEEVCRCVPSYWKRPQMS | not soluble
MKVTKADIVISAVKPEQYPDGDLPEIALAGRSNVGKSSFINKILNRKKLVRISSKPGKTQTLNFFLINEMMHFVDVPGYGYAKVSKTERAAWGKMIETYFTTREQLDAAVLVVDLRHKPTNDDVMMYDFLKHYDIPTIIIATKADKIPKGKWQKHLKVVKETLDIESGDEVVLFSSETGLGKEEAWKAIHKFTKTKNA | not soluble
MSPSQDPSLENYRAIADGIATLFFPHAEVVLHDLRSQRVDYIANNLSKREVGDDSALEDMLEGDSDERNIGPYEKLNWDGQKIRSVSTVLRDSAGQPLAVLCINLNISLFESAKAALDLFLSPSKLIPQPDALFRDDWQERINTFLHGWLRQRQLGLNLLTREHKRELVLALHAEGAFKGKSAANYVANVLNMGRATVYKHLKELKEGGD | not soluble
MAHHHHHHMSGVVIKKPNLKRLLAGQREELASFQPPVHPIPEYLGSPLPYLSNPYHIRGTLMAVEQEPEPNHEADGGKQLMADIMNERARICLEVEKTLALTCRVLDKAAQNDGELTELARESLARLTVMGEDLSNRMITSRE | not soluble
MPILEEPHESRTITLPPRPARLGGRCDVLVVGGGPAGFAAAVGAADAGADTVLVERYGFLGGNATAALVMPLMSFHNEHKQAAFTEAGDTSRLLPTDHGEGEPVVAGVLWQLLDRLTGRGGCLPPSPKTGYTVPFDPELFKFCLLEMADESGVRMLFHSFASGALPLDDGPGWRVVFETKSGPVVIDAGVVVDGTGDGDVAAACGAPYEVGRPEDGLVQPMTLMFRVADFARPDFAAYVREHPDQWRGVHGLWDLIEEARKNGELRLPREDILFFATPHPHEVAVNSTRVNRVLGTSVWDLTRAEYTARHQLAEIDRFLRTRVPGFEESYVVQSGTHVGVRESRRVVGDHRLTGHDILAARTFPDVIAHGAYPVDIHNPRGSGTVLKRVPRGSFYDIPLRCLLPRDTDRLLVAGRCISGTHVAHSSYRVMPIAMATGHAAGVCAALTVRHGSGPRGLPYRLVQRELLRQGARLRTEPHLEHHHHHH | not soluble
MEHEGLLVAEREIEVNNYDIDAMGIVSNIVYIRWFEDLRTIFINEYMTFSEMMKEHISPILMKTEIEYKVPITIHDKPVGRCWFVKAGRMKWVFKFEITSGDKVHCIGQQTGGFLDLERQRITKMPLEHHHHHH | not soluble
MGSDKIHHHHHHMNRYLIIARVGDNSLHPTWINSEKRNFDLFISYFGNEEKKYSEHADYYEHMKGGKWPIISRLIDKNWEIISKYDAVWFPDDDLLVDTNSICKMFDLFSAFDLSLAQPALSMDSYFSHPCLLQQKKSIIRFTNFVEVMAPIFSLSSLERVKHTFSQSKSGWGLDFLWPHMINGKIGIIDVTPVIHTRPIGGELYKLNPELSPKMDIVKLQEIYPDIILNKKYKKNKFKVFSQILETRTLNEKMAYFKGKVQVALAKKVSKETKKYGA | not soluble
MDAGYFRGANSEQDGRFSDKEKKLLKTMKFEPQLEQKIDLNRCNMDVIKPWITARVNDILGMEDDVVVEYILSQIDDKNLNPKLLQINVTGFLNARRAREFVGDLWNLLIEANASEDGIPASLVNQKMAEMKTNDRDEKGDDREDNDWTNRYKTLSNGRYTGPAREKAVRDDRIPARALSPRKTPPRRNASPGGDGGGGSPAARRGGSAGNRRRSPPRRGSPRRGSPRRDTRRSPPRRRGSPPARGGDRRDRREDRRPVRDEKEREEESRRREIERKKRHEEAELRQKAIASVAARAKSGSPRRRRSPSASKSPPPARRRRSPSQSKSPAPKRAKSRSKSPPAPARRRRSPSASKSPPPAPKRAKSRSKSPPARRRRSPSASKSPPAPRRRRSPSKSRSPAPKREIPPARRRRSPSASKSPPAPKRAKSRSKSPPAPRRRRSPSQSKSPAPRRRRSPSKSPQAPRRRRSPSGSKSRSPRRRRSPAAAPRRRQSPQRRRSPRRRRSPSSSSRSRSPPPPPRRPRQDSEQQAPVAVKSPEMKKRRPNDTDSDVSVDSEAEEERRRKKAKKEKKAAKKHKKEKKSKKHRKRRSPSASESGSESD | soluble
MAEEPYVFTLKKRNNDDAEDDWDRYSENVRPTRRGRKIDALKRNVEEVVTEETARLKLDQLLEELQNLECSEESEELQKILDFCSWFEEKLAIGFHKVYYELLWKIISRHGFLEKYKEDERMLKIWEKMADNSAGHAHDIYQFAISRKSLVKCAALYARWSQSVELAGAYVEARRVLILARTNCAVPIQIVNDAEDALEMREMRRHLQERDSDDDEEEEETRKAFTNLPVIGDNHTVPIVRLPSMCSDTTKKAMKFDTGNVERVNPVCKDNQMQPFEVLSYTDADDVEYLRNVHELHAHIERYAIKETTNPSITGSSTSEAAAVTIYPVSSSEFEVWTVEGSGPTKAKARMAIKRVFKDLSFEEYAASLLPNHPSMVRATAKKLDFDETL | not soluble
MSLRKEPSSQLELFLNILHGFSTTITSETLNKISEKFLDMVNGSINPSLSLKNKITIVFQDCLTNGFQSANLSKLLENLNSIDVVEVLSEFIHCDLKVGAFSVIDLLDTDIFLSVLSMESLKQTLSIMDKFIIDILLVFTIVDINYEVFAEKLSKLITLHFNISLWLQVYQIDKLLAISETFGHVTKYNYGAQLKSYSDITDFTTLMVGFVKNSPTAEPPIFTRAFSDFILNGEDLTCAKQFLHFVAKPYHVSKDPVEELLYALSLFKCNEYDASIEIFLANDFSDELSLPKYLEVTENHVWYNLLHAINTKDKPAYYYELSVLCSKASSYANALKTIKKSISLDGTRADQLIQYLDTLIVFGDYKEVLDVLRLEQKVLDISLREKYYYTLLSDQKYSEMFTATLLQECYNANISNGSILLCVSDYKIIASILSSQVSLTDWNSYKKLFSFRILNQHERKACEELYDYVLFGSNDEVKEKCLLLISNVLKTFSDAKDQWFISYPGQIIHLHELNDKMNKCSKEGHHHHHH | not soluble
MKRSAFFISDGTGITAETLGQSLLAQFENITFNKFTRPYIDSVEKARAMVQQINNAADKDDVRPIIFDTIVNQDIREILATSNGFMIDIFSTFLAPLEQELSSHSSYSVGKSHSIGHNSNYMERIEAVNFALDNDDGARTHYYDKADIILVGVSRCGKTPTCLYMAMQFGIRAANYPLTEDDMERLQLPPALKQHREKLFGLTIDPDRLTAIRHERKPNSRYSSYAQCEFEVREVESLFRRENIPNINSTHFSVEEISAKVLVEKGVERRFKLEHHHHHH | not soluble
MPCSEETPAISPSKRARPAEVGGMQLRFARLSEHATAPTRGSARAAGYDLYSAYDYTIPPMEKAVVKTDIQIALPSGCYGRVAPRSGLAAKHFIDVGAGVIDEDYRGNVGVVLFNFGKEKFEVKKGDRIAQLICERIFYPEIEEVQALDDTERGSGGFGSTGKN | soluble
MVDMKTTHTSLPFAGHTLHFVEFDPANFCEQDLLWLPHYAQLQHAGRKRKTEHLAGRIAAVYALREYGYKCVPAIGELRQPVWPAEVYGSISHCGATALAVVSRQPIGVDIEEIFSAQTATELTDNIITPAEHERLADCGLAFSLALTLAFSAKESAFKASEIQTDAGFLDYQIISWNKQQVIIHRENEMFAVHWQIKEKIVITLCQHD | not soluble
AAIRHITTGTYIARIREEYQQTEVKPELQPMKEALARMTDRAEALIAFVTEQKDQELLDFQARRLVEMTAHAVFGHLLMLAANDDDSFRQSAEVYLRYGQAEQEKIDSYVRAFRPEELTFYSRCSRPE | soluble
SLEECVCENYKLAVNCFVNNNRQCQCTSVGAQNTVICSKLAAKCLVMKAEMNGSKLGRRAKPEGALQNNDGLYDPDCDESGLFKAKQCNGTSTCWCVNTAGVRRTDKDTEITCSERVRTYWIIIELKHKAREKPYDSKSLRTALQKEITTRYQLDPKFITSILYENNVITIDLVQNSSQKTQNDVDIADVAYYFEKDVKGESLFHSKKMDLTVNGEQLDLDPGQTLIYYVDEKAPEFSEG | not soluble
MGSDKIHHHHHHMSDFHHGVQVVEINDGTRVISTVSTAIIGMVCTASDADAATFPLNKPALITSVQSAIAKAGTKGTLAASLQAIADQSKPVIVVVRVAEGTGDDAEAQTISNIIGGTDESGNYTGLKALLTAEAVTGVKPRILGVPGLDSLEVATALAPICQKLRAFGYISAWDCQNISEAMLYRENFSQRELMVIWPDFLAWDTTANATETVWATARALGLRAKIDQDTGWHKTLSNVGVNGVTGISASVFWDLQESGTDADLLNEAGVTTLIRKDGFRFWGNRCCSDDPLFLFENYTRTAQVIADTMAAGHMWAVDKPITATLIKDIVAGINAKFREMKTAGYIVDATCWFDESANDAATLKAGKLYIDYDYTPVPPLENLTLRQRITDKYLANLVSSVNSN | not soluble
MEEQNNNQLQIELKEEVAQGTYANLAIITHSSSEFILDFVRVMPGVPKAGVQSRIIVAPEHAKRLLRALEDNIAKYERAFGPIRISEESPMPPLSVVKGEA | not soluble
MGSDKIHHHHHHMKIALIQPKMNKRPMDTDLKTRMSPPLSLLTLMGLTPEGHEVIMVNENVEKIDYACGAELVGITITLDVMPRAVEIAEEFHRLGIPVVAGGIHVTSSPDECRGYFDAICIGAAERVWERMIEDAEESRLQQVYHDMTDFRGEEIASPAYHRIDKNRYLYTNIMTTSRGCPNRCGFCYNSCRNRMYIRRPVTDVLRDIEGLGTRHILFIDDNFIGVPAYTRELLNHLRGRELKWSAAVTTKIADYPDVLDLMAETGCQSLFIGFESINNSSLHGVNKDNQFEKYERIVTAIHSRGIMINASMVFGLDGDEPDVFQRTLDWLVKNKIETLTSHILTPYPGTELHGRMKEEGRILDHELSRYNTAHVVFQPKGMTAEELYKGYLWIYREFYSFPNIWRRRPEHKAQRKSFFLFNILYRKFGGLTSVLARIIPMRTVGRLAARISYRVK | not soluble
